This note sets out measurements from patent WO2021110095A1 (dated 2021).

The target in the experiment is human GPC3 full-length protein on cells (CHO-K1-hGPC3; cells expressing GPC3) (human, UniProt P51654 25-580). In words: cell-based or functional assay.
Chain of human GPC3 full-length protein on cells (CHO-K1-hGPC3; cells expressing GPC3) (P51654 25-580, form in doubt): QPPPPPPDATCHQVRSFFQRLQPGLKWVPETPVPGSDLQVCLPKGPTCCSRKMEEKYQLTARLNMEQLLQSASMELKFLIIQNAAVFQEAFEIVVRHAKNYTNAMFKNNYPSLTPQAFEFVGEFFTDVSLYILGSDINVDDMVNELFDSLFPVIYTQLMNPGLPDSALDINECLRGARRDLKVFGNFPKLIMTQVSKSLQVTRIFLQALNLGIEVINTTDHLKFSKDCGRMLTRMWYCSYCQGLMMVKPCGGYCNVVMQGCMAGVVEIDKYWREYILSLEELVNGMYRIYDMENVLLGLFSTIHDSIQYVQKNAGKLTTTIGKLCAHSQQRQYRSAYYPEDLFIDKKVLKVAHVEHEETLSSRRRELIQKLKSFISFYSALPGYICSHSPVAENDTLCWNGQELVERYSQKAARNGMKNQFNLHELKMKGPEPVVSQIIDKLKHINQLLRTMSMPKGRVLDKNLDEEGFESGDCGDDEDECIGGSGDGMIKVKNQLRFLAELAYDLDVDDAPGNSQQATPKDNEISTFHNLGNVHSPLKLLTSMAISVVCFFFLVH

B1: humanized antibody Ab9 (antibody, human IgG1, kappa, V domains shown)
VH: QVQLVQSGAEVKKPGASVKVSCKASGYTFTDYEMHWVRQAPGQGLEWMGAIDPKTGRTAYNQKFKDRVTLTADKSTSTAYMELSSLTSEDTAVYYCTRYYSYAYWGQGTLVTVSS
VL: DVVMTQSPLSLSVTPGEPASISCRSSQSLVHSNRNTYLQWYLQKPGQPPQLLIYKVSNRFSGVPDRFSGSGSGTDFTLKISRVEAEDVGVYYCSQSIHVPYTFGQGTKLEIKR
On to B1, for which the “CDC, IC50” value worked out at 0.308 nM.
